Reference: patent US11433139B2, “Peptide vaccines against interleukin-31” (Zoetis Services LLC, priority 2018, dated 2022)
Entries after “also recorded” stand apart in the source; their conditions may differ. Where no end group is shown, it is not given here. The star is where a group is joined. Biotin = O=C1N[C@H]2[C@H](CS[C@H]2CCCCC(=O)*)N1

B1: 11E12: mouse-derived anti IL-31 antibody previously described in U.S. Pat. No. 8,790,651; for comparison (antibody, V domains shown)
VH: QVQLQQSGAELVKPGASVKLSCKASGYTFKYYDINWVRQRPEQGLEWIGWIFPGDGGTKYNETFKGKATLTTDKSSSTAYMQLSRLTSEDSAVYFCARGGTSVIRDAMDYWGQGTSVTVSS
VL: DIVLTQSPASLAVSLGQRATISCRASESVDNYGISFMHWYQQKPGQPPKLLIYRASNLESGIPARFSGSGSRTDFTLTINPVETDDVATYYCQQSNKDPLTFGAGTKLELK
B2: ZIL1: fully canine anti IL-31 antibody, VH SEQ ID NO: 75, VL SEQ ID NO: 77 (antibody, listed as Canis familiaris, V domains shown)
VH: EVQLVESGGDLVKPGGSLRLSCVASGFTFSSYGMSWVRQAPGKGLQWVAHINSGGSSTYYADAVKGRFTISRDNAKNTLYLQMNSLRAEDTAVYYCVEVYTTLAAFWTDNFDYWGQGTLVTVSS
VL: QSVLTQPTSVSGSLGQRVTISCSGSTNNIGILAATWYQQLPGKAPKVLVYSDGNRPSGVPDRFSGSKSGNSATLTITGLQAEDEADYYCQSFDTTLDAYVFGSGTQLTVL

Key:
[1] = tested on: mouse anti equine IL-31 serum; assay: Bio-layer interferometry binding of mouse serum to immobilized equine IL-31 mimotopes
From the text: Mice were immunized with full length equine IL-31 (SEQ ID NO: 165; Equine_IL-31), the corresponding nucleotide sequence for which is (SEQ ID NO: 166; […]) conjugated to CRM-197 like the method described in section 1.6 of this application. Biotin conjugated peptides representing three epitope regions described herein were designed for use with a bio-layer interferometry binding assay (Octet, ForteBio). Description of these peptides are described in FIG. 21A. Each peptide contains an N terminal biotin with a three-amino acid spacer sequence (GSG) annotated with bold underlined text in the figure. The 15H05 mimotope includes two terminal cysteine residues (also highlighted in bold and underlined) to facilitate cyclization by a disulphide bond. […] Control mouse serum was from a mouse vaccinated with an unrelated protein. The response, described here as the amplitude of the signal following 120 seconds of antiserum association, is represented on the y axis of the figure. […] In addition, the ability of these IL-31 mimotopes to be recognized by those immune responses can be assessed through binding. […] Like presentation of mimotopes described herein which elicit immune responses to full length protein, this experiment describes a reciprocal validation of these epitopes where the immune response is validated from the protein against the mimotope.

feline IL-31 [2] = assay: Inhibition of feline IL-31 induced pSTAT3 signaling in feline FCWF4 macrophage-like cells; type: cell-based; settings: 0.2 μg/mL feline IL-31, pSTAT3, FCWF4 cells (FIG. 3)
Method: (§1) To identify candidates with inhibitory activity, antibodies were assessed for their ability to affect IL-31-mediated STAT3 phosphorylation in either a canine or feline cell-based assay. STAT3 phosphorylation was determined in canine DH-82 (ATCC® CRL-10389™) or feline FCWF4 macrophage-like cells (ATCC CRL-2787). DH82 and FCWF4 cells were primed with canine interferon gamma (R&D Systems, Minneapolis, Minn.) at 10 ng/mL for 24 hours or feline interferon gamma (R&D Systems, Minneapolis, Minn.) at 125 ng/mL for 96 hours, respectively, to increase receptor expression. Both cell types were serum starved for 2 hours prior to IL-31 and mAb treatment. Using two independent methods, all candidate mAbs were evaluated for their ability to inhibit either 1 μg/mL canine or 0.2 μg/mL feline IL-31 induced STAT3 phosphorylation. […] To ensure complex formation, a one hour co-incubation of mAb and IL-31 cytokine prior to cell stimulation was completed. IL-31 cell stimulation was carried out for five minutes. STAT3 phosphorylation was measured using AlphaLISA SureFire ULTRA™ technology (Perkin Elmer, Waltham, Mass.). In the case where antibody concentration and purity are unknown, hybridoma supernatants were qualitatively measured for their ability to inhibit STAT3 phosphorylation following a 1 hour co-incubation with […] IL-31. The potency of individual monoclonal antibodies defined by their ability to inhibit IL-31 mediated STAT3 phosphorylation in these assays was considered the key selection criteria for further advancement of select antibodies. The term potency refers to the IC50 value calculated from these assays and is the concentration of the antibody where signaling induced by IL-31 is reduced to one half its maximal value.

[3] = tested on: feline IL-31 11E12 mutant; assay: Indirect ELISA, binding to feline IL-31 11E12 mutant; settings: compared with wildtype
Chain of feline IL-31 11E12 mutant (as listed by the source, change not shown): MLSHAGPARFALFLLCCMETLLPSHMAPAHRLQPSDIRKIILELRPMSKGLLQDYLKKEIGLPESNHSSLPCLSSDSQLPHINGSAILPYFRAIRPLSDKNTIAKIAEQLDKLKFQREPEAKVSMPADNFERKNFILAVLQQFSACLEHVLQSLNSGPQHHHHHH
From the text: (§2) To determine the impact of mAbs 11E12 and 15H05 ability to bind these mutant forms of feline IL-31, an indirect ELISA was run using the mutants directly coated on to an immunoassay plate. […] The minor attenuation of mAb 15H05s binding to the 11E12 mutant is likely due to translational effects of the mutations from movement of the two front helices effecting the 15H05 binding site. The mutations designed to affect mAb 15H05s binding (mutant 15H05) show a complete loss of mAb 1505s ability to bind this IL-31 mutant by ELISA. Unlike the 11E12 mutant, the changes in the random coil recognized by mAb 15H05 (mutant 15H05) had no impact on mAb 11E12 binding further supporting the distinction between the two epitopes (FIG. 6C).

canine IL-31 [4] = assay: Affinity of anti-IL-31 antibodies by surface plasmon resonance (Biacore), canine IL-31 surface; type: binding; settings: IL-31 conjugated to the surface (FIG. 2)
Chain of canine IL-31 (as listed by the source): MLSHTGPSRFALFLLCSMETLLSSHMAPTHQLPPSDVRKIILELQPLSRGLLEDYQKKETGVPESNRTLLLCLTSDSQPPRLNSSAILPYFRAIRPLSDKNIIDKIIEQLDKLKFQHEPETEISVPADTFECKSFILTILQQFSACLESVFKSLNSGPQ
How it was run: (§3)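 IL-31 amine-coupled (NHS/EDC) at 5 μg/mL directly onto the SPR chip, quenched with ethanolamine; candidate mAbs flowed over as analyte. KD from 1:1 model fits; values below 1×10^−11 M are under the instrument's lower quantitation limit.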

[5] = tested on: feline 11E12 mutant IL-31; assay: Biacore binding, single test concentration of antibody, feline 11E12 mutant IL-31 surface
Method: (§4) For the indirect ELISA, binding (ELISA OD) to wildtype feline IL-31 and a feline IL-31 15H05 mutant which had mutations in the monoclonal antibody 15H05 epitope region was assessed. To confirm binding, biacore analysis was performed using canine, feline, equine, human, the feline 15H05 mutant, and feline 11E12 mutant IL-31 proteins as surfaces and a single test concentration of antibody. The feline IL-31 11E12 mutant had mutations in the monoclonal antibody 11E12 epitope region.
(§5) For the indirect ELISA method, antibody binding to wildtype and feline IL-31 15H05 mutant proteins was assessed. […] In comparison, the 11E12 antibody bound to the wild-type feline IL-31 and its binding was not impacted by the mutations in the 15H05 epitope region as evidenced by the data in FIG. 4. To confirm binding, biacore analysis was performed using canine, feline, equine, human, feline 15H05 mutant, and feline 11E12 mutant IL-31 proteins as surfaces and a single test concentration of antibody. Similar to ELISA observations, all antibodies tested bound to wildtype feline IL-31. In agreement with the data described above in this section, mouse antibodies 11 E12 and 15H05 both bound to canine and feline IL-31 surfaces. […] From this group of nine fully canine antibodies, only ZIL1 and ZIL9 cross-reacted with equine IL-31. Of note, antibody 15H05 was the only one of all assayed herein that bound to canine, feline, and equine IL-31 indicating some level of epitope conservation across the three species. In contrast, none of the antibodies described herein bound to human IL-31. Additional biacore surfaces were used to verify ELISA observations showing differential binding of antibodies to wildtype feline IL-31 and two proteins with mutations in the 15H05 (15H05 mutant) or 11 E12 (11E12 mutant) epitopes. […] Differing results can be attributed to differences in the two assay methodologies.

[6] = tested on: feline 15H05 mutant IL-31; assay: Biacore binding, single test concentration of antibody, feline 15H05 mutant IL-31 surface
Method: as §4, §5

canine IL-31 [7] = assay: Biacore binding, single test concentration of antibody, canine IL-31 surface
Method: as §4, §5

canine IL-31 [8] = assay: Competition binding assessment using Biacore, canine IL-31 surface; settings: sequential addition of 15H05 and 11E12, Biacore
Method: (§6) To further characterize the IL-31 epitopes bound by mAbs 15H05 and 11 E12, blocking experiments were performed using biacore where the surface containing the IL-31 protein was generated followed by sequential addition of antibodies. FIGS. 7A and 7B show the relative binding of each antibody to IL-31 following capture of 11E12 or 15H05. The columns labeled HBS-EP (assay buffer) indicate the maximum signal obtained from each antibody binding to the IL-31 surface alone without competition. […] The sensograms related to FIG. 7A show the disassociation kinetics of both antibodies are very slow on this newly formed biacore surface therefore no additional occupation of binding sites can occur with addition of the same antibody (data not shown).

wildtype feline IL-31 [9] = assay: Biacore binding, single test concentration of antibody, feline IL-31 surface
Chain of wildtype feline IL-31 (as listed by the source): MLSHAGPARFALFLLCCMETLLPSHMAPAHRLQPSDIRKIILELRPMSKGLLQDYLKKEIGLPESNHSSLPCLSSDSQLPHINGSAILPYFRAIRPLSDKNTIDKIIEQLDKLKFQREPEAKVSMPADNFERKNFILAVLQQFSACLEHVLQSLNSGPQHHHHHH
Method: as §4
For the indirect ELISA method, antibody binding to wildtype and feline IL-31 15H05 mutant proteins was assessed. […] In comparison, the 11E12 antibody bound to the wild-type feline IL-31 and its binding was not impacted by the mutations in the 15H05 epitope region as evidenced by the data in FIG. 4. To confirm binding, biacore analysis was performed using canine, feline, equine, human, feline 15H05 mutant, and feline 11E12 mutant IL-31 proteins as surfaces and a single test concentration of antibody. Similar to ELISA observations, all antibodies tested bound to wildtype feline IL-31. In agreement with the data described above in this section, mouse antibodies 11 E12 and 15H05 both bound to canine and feline IL-31 surfaces. […] From this group of nine fully canine antibodies, only ZIL1 and ZIL9 cross-reacted with equine IL-31. […]

wildtype feline IL-31 [10] = assay: Indirect ELISA, binding to wildtype feline IL-31
Method: (§7) Mice and dogs were immunized with recombinant canine IL-31 (SEQ ID No. 155) for the purpose of identifying antibodies. Serum antibody titers from immunized animals were determined using an enzyme linked immunosorbent assay (ELISA). Canine or feline IL-31 (50 ng/well) was immobilized to polystyrene microplates and used as a capture antigen. Serum from immunized animals was diluted in phosphate buffered saline with 0.05% tween-20 (PBST). The presence of anti-IL-31 antibodies was detected with an appropriate secondary HRP labeled antibody. Following addition of a chromogenic substrate (SureBlue Reserve TMB 1-Component Microwell Peroxidase Substrate, KPL, Inc., Gaithersburg, Md.) and a ten minute incubation at room temperature (RT) the reaction was stopped with the addition of […] of 0.1 N HCl. The absorbance of each well was determined at an optical density (OD) of 450 nm. Antibodies were selected for their ability to bind canine and feline IL-31 using an ELISA. In some cases, further characterization was performed at the time of selection using an ELISA with a mutant form of the feline IL-31 protein as a capture antigen. Cells producing antibodies with desired binding and inhibitory properties were chosen for sequence analysis of RNA transcripts representing the variable heavy (VH) and variable light (VL) IgG chains.
as §5, §2

feline IL-31 [11] = assay: Inhibition of feline IL-31 induced pSTAT3 signaling in canine DH-82 cells; type: cell-based; settings: feline IL-31, pSTAT3, canine DH82 cells (FIG. 3)
Method: as §1
Target sequence in this assay (as listed by the source): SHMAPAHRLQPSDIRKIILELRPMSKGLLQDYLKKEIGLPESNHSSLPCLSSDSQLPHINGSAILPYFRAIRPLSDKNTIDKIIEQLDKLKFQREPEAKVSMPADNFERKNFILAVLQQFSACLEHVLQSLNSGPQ

feline IL-31 [12] = assay: Competition binding assessment using Biacore, feline IL-31 surface; settings: sequential addition of 15H05 and 11E12, Biacore
Method: as §6
Binding of additional antibody in the presence of the same antibody is a result of the increased off rate due to the poorer quality of the surface used. Increased off rates can be seen and compared to the KD values from newly formed feline IL-31 surfaces in FIG. 2.

feline IL-31 [13] = assay: Affinity of anti-IL-31 antibodies by surface plasmon resonance (Biacore), feline IL-31 surface; type: binding; settings: IL-31 conjugated to the surface (FIG. 2)
How it was run: as §3

[14] = tested on: feline IL-31 15H05 mutant; assay: Indirect ELISA, binding to feline IL-31 15H05 mutant; settings: compared with wildtype
Chain of feline IL-31 15H05 mutant (as listed by the source, change not shown): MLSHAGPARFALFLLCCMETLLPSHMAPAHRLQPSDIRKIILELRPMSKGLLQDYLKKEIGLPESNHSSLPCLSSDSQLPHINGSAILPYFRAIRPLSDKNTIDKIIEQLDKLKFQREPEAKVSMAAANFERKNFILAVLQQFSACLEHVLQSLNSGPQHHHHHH
Method: as §7, §5, §2

equine IL-31 = assay: Biacore binding, single test concentration of antibody, equine IL-31 surface
Chain of equine IL-31 (as listed by the source): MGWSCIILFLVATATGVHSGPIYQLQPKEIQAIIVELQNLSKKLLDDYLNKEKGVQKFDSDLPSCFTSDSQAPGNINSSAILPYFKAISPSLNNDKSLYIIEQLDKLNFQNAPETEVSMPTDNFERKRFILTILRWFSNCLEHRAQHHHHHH
Method: as §4, §5

Molecule	binding of mouse anti equine IL-31 serum to mimotope ([1]; biotin peptide on streptavidin pins, 120 seconds association)	binding of control mouse serum to mimotope ([1]; serum of a mouse vaccinated with an unrelated protein)	potency (IC50) against feline IL-31 in feline FCWF4 cells (feline IL-31 [2])	binding to feline IL-31 11E12 mutant (ELISA) [3]	affinity (KD) to canine IL-31 (canine IL-31 [4])	binding to feline 11E12 mutant IL-31 (Biacore) [5]	binding to feline 15H05 mutant IL-31 (Biacore) [6]	binding to canine IL-31 (Biacore) (canine IL-31 [7])	competition binding on canine IL-31 (canine IL-31 [8])	binding to wildtype feline IL-31 (Biacore) (wildtype feline IL-31 [9])	binding to wildtype feline IL-31 (ELISA) (wildtype feline IL-31 [10])	potency (IC50) against feline IL-31 in canine DH82 cells (feline IL-31 [11])	competition binding on feline IL-31 (feline IL-31 [12])	affinity (KD) to feline IL-31 (feline IL-31 [13])	binding to feline IL-31 15H05 mutant (ELISA) [14]	binding to equine IL-31 (Biacore) (equine IL-31)
A helix: biotin GSG equine IL-31 mimotope N-GPIYQLQPKEIQAIIVELQNLSKK-C (Biotin-GSGGPIYQLQPKEIQAIIVELQNLSKK)	recognized as relevant immunogens	some dilution dependent signal	–	–	–	–	–	–	–	–	–	–	–	–	–	–
B1	–	–	comparable	highly attenuated	high affinity	did not bind	bound	bound	capable of binding to canine IL-31 in the presence of one another	bound	bound; also recorded: capable of binding	comparable	no overlap in the epitope recognized	high affinity	not impacted; also recorded: no impact	–
B2	–	–	–	–	–	partially effected	decreased	–	–	–	capable of binding; also recorded: retained binding	–	–	–	binding was impacted; also recorded: decreased	cross-reacted
